US20140274782A1, “AFFINITY REAGENTS AND METHODS FOR DETECTION, PURIFICATION, AND PROTEOMIC ANALYSIS OF METHYLATED PROTEINS” (The Board of Trustees of the Leland Stanford Junior …, priority 2013, published 2014)

What was measured:
[1] = target: MOBKL3, G9a-methylated (human) (UniProt Q9Y3A3); assay: ProtoArray methylated with G9a SET domain
[2] = target: C1QTNF6, G9a-methylated (human) (UniProt Q9BXI9); assay: ProtoArray methylated with G9a SET domain
[3] = target: TMEM97, G9a-methylated (human) (UniProt Q5BJF2); assay: ProtoArray methylated with G9a SET domain
[4] = target: RHBDD1, G9a-methylated (human) (UniProt Q8TEB9); assay: ProtoArray methylated with G9a SET domain
[5] = target: RASSF4, G9a-methylated (human) (UniProt Q9H2L5); assay: ProtoArray methylated with G9a SET domain
[6] = target: GPR108, G9a-methylated (human) (UniProt Q9NPR9); assay: ProtoArray methylated with G9a SET domain
[7] = target: LYPLAL1, G9a-methylated (human) (UniProt Q5VWZ2); assay: ProtoArray methylated with G9a SET domain
[8] = target: STK17B, G9a-methylated (human) (UniProt O94768); assay: ProtoArray methylated with G9a SET domain
[9] = target: SAR1B, G9a-methylated (human) (UniProt Q9Y6B6); assay: ProtoArray methylated with G9a SET domain
[10] = target: DNTT, G9a-methylated (human) (UniProt P04053); assay: ProtoArray methylated with G9a SET domain
[11] = target: FKBP14, G9a-methylated (human) (UniProt Q9NWM8); assay: ProtoArray methylated with G9a SET domain
[12] = target: UBE2S, G9a-methylated (human) (UniProt Q16763); assay: ProtoArray methylated with G9a SET domain
[13] = target: GNPTAB, G9a-methylated (human) (UniProt Q3T906); assay: ProtoArray methylated with G9a SET domain
[14] = target: UBE2D2, G9a-methylated (human) (UniProt P62837); assay: ProtoArray methylated with G9a SET domain
[15] = target: LTC4S, G9a-methylated (human) (UniProt Q16873); assay: ProtoArray, G9a array SNR minus GST array SNR
[16] = target: LRRC20, G9a-methylated (human) (UniProt Q8TCA0); assay: ProtoArray, G9a array SNR minus GST array SNR
[17] = target: DGKA, G9a-methylated (human) (UniProt P23743); assay: ProtoArray, G9a array SNR minus GST array SNR
[18] = target: MOBKL3, G9a-methylated (human) (UniProt Q9Y3A3); assay: ProtoArray, G9a array SNR minus GST array SNR
[19] = target: SNFT, G9a-methylated (human) (UniProt Q9NR55); assay: ProtoArray, G9a array SNR minus GST array SNR
[20] = target: MGC10433 (RNA-binding protein 42), G9a-methylated (human) (UniProt Q9BTD8); assay: ProtoArray, G9a array SNR minus GST array SNR
[21] = target: SMYD5, G9a-methylated (human) (UniProt Q6GMV2); assay: ProtoArray, G9a array SNR minus GST array SNR
[22] = target: ARL6IP1, G9a-methylated (human) (UniProt Q15041); assay: ProtoArray, G9a array SNR minus GST array SNR
[23] = target: RHBDD1, G9a-methylated (human) (UniProt Q8TEB9); assay: ProtoArray, G9a array SNR minus GST array SNR
[24] = target: RAB7B, G9a-methylated (human) (UniProt Q96AH8); assay: ProtoArray, G9a array SNR minus GST array SNR
[25] = target: CDK5RAP3, G9a-methylated (human) (UniProt Q96JB5); assay: ProtoArray, G9a array SNR minus GST array SNR
[26] = target: RASSF4, G9a-methylated (human) (UniProt Q9H2L5); assay: ProtoArray, G9a array SNR minus GST array SNR
[27] = target: C12orf60, G9a-methylated (human) (UniProt Q5U649); assay: ProtoArray, G9a array SNR minus GST array SNR
[28] = target: GHRL, G9a-methylated (human) (UniProt Q9UBU3); assay: ProtoArray, G9a array SNR minus GST array SNR
[29] = target: CMTM3, G9a-methylated (human) (UniProt Q96MX0); assay: ProtoArray, G9a array SNR minus GST array SNR
[30] = target: CD79A, G9a-methylated (human) (UniProt P11912); assay: ProtoArray, G9a array SNR minus GST array SNR
[31] = target: RDH11, G9a-methylated (human) (UniProt Q8TC12); assay: ProtoArray, G9a array SNR minus GST array SNR
[32] = target: GPX5, G9a-methylated (human) (UniProt O75715); assay: ProtoArray, G9a array SNR minus GST array SNR
[33] = target: CDKL5, G9a-methylated (human) (UniProt O76039); assay: ProtoArray, G9a array SNR minus GST array SNR
[34] = target: GAL, G9a-methylated (human) (UniProt P22466); assay: ProtoArray, G9a array SNR minus GST array SNR
[35] = target: SEC22B, G9a-methylated (human) (UniProt O75396); assay: ProtoArray, G9a array SNR minus GST array SNR
[36] = target: CSF3, G9a-methylated (human) (UniProt P09919); assay: ProtoArray, G9a array SNR minus GST array SNR
[37] = target: DNTT, G9a-methylated (human) (UniProt P04053); assay: ProtoArray, G9a array SNR minus GST array SNR
[38] = target: CRB3, G9a-methylated (human) (UniProt Q9BUF7); assay: ProtoArray, G9a array SNR minus GST array SNR
[39] = target: SCGB2A2, G9a-methylated (human) (UniProt Q13296); assay: ProtoArray, G9a array SNR minus GST array SNR
[40] = target: ZBP1, G9a-methylated (human) (UniProt Q9H171); assay: ProtoArray, G9a array SNR minus GST array SNR
[41] = target: MRPL21, G9a-methylated (human) (UniProt Q7Z2W9); assay: ProtoArray, G9a array SNR minus GST array SNR
[42] = target: ACSL4, G9a-methylated (human) (UniProt O60488); assay: ProtoArray, G9a array SNR minus GST array SNR

Sequence of RASSF4, G9a-methylated (human) (Q9H2L5 whole entry, the tested form may be a part): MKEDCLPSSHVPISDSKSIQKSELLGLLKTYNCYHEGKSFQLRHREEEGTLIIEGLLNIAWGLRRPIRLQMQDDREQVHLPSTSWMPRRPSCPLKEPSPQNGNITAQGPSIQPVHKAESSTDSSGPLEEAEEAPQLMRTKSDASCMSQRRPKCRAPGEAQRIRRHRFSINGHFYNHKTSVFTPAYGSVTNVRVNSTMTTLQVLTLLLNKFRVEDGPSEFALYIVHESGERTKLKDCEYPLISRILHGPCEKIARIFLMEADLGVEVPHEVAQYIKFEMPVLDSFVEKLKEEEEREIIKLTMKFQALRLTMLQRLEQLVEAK
Sequence of RHBDD1, G9a-methylated (human) (Q8TEB9 whole entry, the tested form may be a part): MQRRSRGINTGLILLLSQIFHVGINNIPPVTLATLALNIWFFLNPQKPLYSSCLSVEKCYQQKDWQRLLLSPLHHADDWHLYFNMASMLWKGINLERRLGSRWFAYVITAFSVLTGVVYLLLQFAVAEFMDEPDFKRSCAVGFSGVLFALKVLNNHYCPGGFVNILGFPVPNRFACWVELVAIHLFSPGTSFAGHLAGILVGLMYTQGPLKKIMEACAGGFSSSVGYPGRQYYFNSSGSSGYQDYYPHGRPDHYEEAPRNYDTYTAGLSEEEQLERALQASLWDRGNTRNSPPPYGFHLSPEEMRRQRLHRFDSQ
Sequence of DNTT, G9a-methylated (human) (P04053 whole entry, the tested form may be a part): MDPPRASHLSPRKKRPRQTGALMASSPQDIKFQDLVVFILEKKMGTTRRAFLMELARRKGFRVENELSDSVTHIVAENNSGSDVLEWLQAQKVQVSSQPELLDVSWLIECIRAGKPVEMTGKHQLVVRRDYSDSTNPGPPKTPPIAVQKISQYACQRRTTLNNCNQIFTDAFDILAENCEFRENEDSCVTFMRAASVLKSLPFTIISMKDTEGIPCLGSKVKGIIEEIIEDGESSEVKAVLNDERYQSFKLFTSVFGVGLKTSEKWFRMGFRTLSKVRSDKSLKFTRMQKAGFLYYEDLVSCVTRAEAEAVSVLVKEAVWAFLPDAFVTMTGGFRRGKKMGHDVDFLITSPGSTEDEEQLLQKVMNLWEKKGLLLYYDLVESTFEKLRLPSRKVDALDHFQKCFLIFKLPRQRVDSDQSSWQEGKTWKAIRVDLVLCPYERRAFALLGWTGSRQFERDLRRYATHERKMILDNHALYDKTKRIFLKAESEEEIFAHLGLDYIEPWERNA
Sequence of MOBKL3, G9a-methylated (human) (Q9Y3A3 whole entry, the tested form may be a part): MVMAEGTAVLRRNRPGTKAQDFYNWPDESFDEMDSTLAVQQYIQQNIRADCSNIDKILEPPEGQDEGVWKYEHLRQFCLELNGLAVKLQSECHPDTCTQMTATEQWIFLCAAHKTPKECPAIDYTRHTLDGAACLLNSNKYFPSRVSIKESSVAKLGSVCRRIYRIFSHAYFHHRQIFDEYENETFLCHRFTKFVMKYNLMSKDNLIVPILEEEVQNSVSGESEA
Sequence of LTC4S, G9a-methylated (human) (Q16873 whole entry): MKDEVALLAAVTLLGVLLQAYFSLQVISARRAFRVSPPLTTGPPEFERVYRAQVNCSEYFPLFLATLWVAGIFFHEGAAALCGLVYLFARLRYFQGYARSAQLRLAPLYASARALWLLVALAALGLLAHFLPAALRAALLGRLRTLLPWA
Sequence of SNFT, G9a-methylated (human) (Q9NR55 whole entry): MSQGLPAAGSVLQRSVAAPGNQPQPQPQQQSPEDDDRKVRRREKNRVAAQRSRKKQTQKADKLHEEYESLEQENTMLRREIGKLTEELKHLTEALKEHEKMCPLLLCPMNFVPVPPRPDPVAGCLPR
Sequence of SAR1B, G9a-methylated (human) (Q9Y6B6 whole entry, the tested form may be a part): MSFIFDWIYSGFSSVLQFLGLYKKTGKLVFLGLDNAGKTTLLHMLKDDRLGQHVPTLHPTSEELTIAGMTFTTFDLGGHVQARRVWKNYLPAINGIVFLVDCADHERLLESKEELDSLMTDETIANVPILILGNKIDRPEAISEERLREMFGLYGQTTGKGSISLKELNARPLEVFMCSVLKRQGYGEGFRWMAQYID
Sequence of TMEM97, G9a-methylated (human) (Q5BJF2 whole entry, the tested form may be a part): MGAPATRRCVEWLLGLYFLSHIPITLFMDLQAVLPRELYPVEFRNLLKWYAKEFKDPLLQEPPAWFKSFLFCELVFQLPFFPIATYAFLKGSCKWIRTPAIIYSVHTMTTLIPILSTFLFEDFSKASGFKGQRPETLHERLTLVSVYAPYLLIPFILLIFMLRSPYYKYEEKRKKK
Sequence of CSF3, G9a-methylated (human) (P09919 31-207 limits assumed): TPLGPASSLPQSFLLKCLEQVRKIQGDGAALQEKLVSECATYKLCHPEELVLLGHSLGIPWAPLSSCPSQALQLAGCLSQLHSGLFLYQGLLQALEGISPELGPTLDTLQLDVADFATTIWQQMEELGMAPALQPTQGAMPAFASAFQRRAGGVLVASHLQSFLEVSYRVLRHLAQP
Sequence of RDH11, G9a-methylated (human) (Q8TC12 whole entry): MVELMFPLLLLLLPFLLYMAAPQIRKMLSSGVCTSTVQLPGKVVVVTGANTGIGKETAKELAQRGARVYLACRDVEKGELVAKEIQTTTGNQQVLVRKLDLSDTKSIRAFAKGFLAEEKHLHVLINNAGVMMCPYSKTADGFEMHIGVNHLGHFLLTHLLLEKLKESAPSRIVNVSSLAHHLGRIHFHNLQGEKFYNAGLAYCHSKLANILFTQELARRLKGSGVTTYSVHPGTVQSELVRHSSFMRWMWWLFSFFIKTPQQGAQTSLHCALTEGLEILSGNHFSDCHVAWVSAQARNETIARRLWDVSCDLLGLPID
Sequence of GHRL, G9a-methylated (human) (Q9UBU3 24-117 limits assumed): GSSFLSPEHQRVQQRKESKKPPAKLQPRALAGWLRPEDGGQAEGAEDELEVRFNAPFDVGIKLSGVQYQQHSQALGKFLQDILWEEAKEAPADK
Sequence of SEC22B, G9a-methylated (human) (O75396 whole entry): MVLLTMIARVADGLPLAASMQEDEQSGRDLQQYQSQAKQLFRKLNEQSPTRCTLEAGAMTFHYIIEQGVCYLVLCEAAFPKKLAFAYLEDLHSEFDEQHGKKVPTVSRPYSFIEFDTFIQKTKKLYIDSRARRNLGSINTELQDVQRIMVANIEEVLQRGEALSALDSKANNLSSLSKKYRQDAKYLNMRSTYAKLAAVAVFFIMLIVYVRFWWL
Sequence of GPX5, G9a-methylated (human) (O75715 other isoform, or with tags, fused parts or gaps limits assumed): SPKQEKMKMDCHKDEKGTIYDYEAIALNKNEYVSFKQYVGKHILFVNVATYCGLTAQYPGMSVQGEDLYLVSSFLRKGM
Sequence of SMYD5, G9a-methylated (human) (Q6GMV2 whole entry): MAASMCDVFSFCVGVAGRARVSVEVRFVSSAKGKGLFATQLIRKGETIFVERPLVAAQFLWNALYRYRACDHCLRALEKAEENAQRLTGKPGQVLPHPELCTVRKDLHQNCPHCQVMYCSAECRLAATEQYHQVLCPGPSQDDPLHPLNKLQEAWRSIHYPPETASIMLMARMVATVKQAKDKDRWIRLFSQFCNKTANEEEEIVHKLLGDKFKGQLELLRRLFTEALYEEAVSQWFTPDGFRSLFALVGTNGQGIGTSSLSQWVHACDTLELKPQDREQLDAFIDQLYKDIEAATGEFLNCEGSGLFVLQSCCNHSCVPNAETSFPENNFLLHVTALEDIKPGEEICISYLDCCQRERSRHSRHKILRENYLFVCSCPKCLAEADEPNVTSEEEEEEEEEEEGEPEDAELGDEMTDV
Sequence of C12orf60, G9a-methylated (human) (Q5U649 whole entry): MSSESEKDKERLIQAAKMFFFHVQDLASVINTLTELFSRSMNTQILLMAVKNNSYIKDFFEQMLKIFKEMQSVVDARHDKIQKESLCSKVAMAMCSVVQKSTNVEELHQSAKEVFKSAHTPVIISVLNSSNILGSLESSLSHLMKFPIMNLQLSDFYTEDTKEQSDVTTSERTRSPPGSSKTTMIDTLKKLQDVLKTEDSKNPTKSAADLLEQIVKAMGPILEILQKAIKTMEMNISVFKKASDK
Sequence of CD79A, G9a-methylated (human) (P11912 33-226 limits assumed): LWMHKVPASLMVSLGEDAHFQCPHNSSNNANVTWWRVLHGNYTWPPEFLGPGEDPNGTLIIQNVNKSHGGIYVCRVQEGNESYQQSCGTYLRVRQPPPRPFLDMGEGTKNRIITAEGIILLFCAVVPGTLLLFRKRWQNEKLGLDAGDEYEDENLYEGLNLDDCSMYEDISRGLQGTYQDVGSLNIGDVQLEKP
Sequence of GPR108, G9a-methylated (human) (Q9NPR9 33-543 limits assumed): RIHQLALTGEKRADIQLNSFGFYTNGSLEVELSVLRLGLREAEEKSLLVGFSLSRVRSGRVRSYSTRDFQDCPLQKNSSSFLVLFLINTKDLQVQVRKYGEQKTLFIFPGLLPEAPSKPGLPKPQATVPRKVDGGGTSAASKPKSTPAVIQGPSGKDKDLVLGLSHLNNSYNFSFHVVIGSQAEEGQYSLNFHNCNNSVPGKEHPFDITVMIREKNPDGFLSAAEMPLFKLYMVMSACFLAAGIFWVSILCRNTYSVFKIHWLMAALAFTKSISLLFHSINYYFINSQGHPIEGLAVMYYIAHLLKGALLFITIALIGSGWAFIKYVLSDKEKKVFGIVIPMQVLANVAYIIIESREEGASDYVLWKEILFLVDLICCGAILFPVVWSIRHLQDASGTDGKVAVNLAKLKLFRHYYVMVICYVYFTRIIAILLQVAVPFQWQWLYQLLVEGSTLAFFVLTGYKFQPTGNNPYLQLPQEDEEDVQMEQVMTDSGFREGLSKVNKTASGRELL
Sequence of STK17B, G9a-methylated (human) (O94768 whole entry, the tested form may be a part): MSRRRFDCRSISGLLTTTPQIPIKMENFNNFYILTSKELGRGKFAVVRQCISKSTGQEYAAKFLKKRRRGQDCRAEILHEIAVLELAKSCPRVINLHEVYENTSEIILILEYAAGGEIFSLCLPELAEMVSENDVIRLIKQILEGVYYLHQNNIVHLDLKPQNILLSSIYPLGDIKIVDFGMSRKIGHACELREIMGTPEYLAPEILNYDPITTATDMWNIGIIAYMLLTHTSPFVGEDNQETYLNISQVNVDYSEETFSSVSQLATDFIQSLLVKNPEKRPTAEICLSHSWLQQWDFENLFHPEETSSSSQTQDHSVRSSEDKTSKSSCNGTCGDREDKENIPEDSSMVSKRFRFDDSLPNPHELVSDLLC
Sequence of GAL, G9a-methylated (human) (P22466 20-123 limits assumed): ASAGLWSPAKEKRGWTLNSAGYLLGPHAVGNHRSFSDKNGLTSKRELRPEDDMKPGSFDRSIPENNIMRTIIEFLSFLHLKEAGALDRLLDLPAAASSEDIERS

**Q.** How did the G9a Average SNR [1] turn out when 3× Flag-3×MBT (designed binder) was run?
**A.** 13.6

**Q.** And the G9a Average SNR [2]?
**A.** 16.4

**Q.** And the G9a Average SNR [3]?
**A.** 21.2

**Q.** What about the G9a Average SNR [4] of the same substance?
**A.** 12.3

**Q.** What about the G9a Average SNR [5] of the same substance?
**A.** 15.7

**Q.** And the G9a Average SNR [6]?
**A.** 19.2

**Q.** And the G9a Average SNR [7]?
**A.** 15.7

**Q.** What about the G9a Average SNR [8] of the same substance?
**A.** 14.4

**Q.** And the G9a Average SNR [9]?
**A.** 19.8

**Q.** What about the G9a Average SNR [10] of the same substance?
**A.** 49.9

**Q.** What about the G9a Average SNR [11] of the same substance?
**A.** 15

**Q.** What about the G9a Average SNR [12] of the same substance?
**A.** 25

**Q.** What about the G9a Average SNR [13] of the same substance?
**A.** 16.5

**Q.** What about the G9a Average SNR [14] of the same substance?
**A.** 37.2

**Q.** And the G9a-GST [15]?
**A.** 12.9

**Q.** And the G9a-GST [16]?
**A.** 30.9

**Q.** What about the G9a-GST [17] of the same substance?
**A.** 14.3

**Q.** What about the G9a-GST [18] of the same substance?
**A.** 14

**Q.** And the G9a-GST [19]?
**A.** 17.1

**Q.** And the G9a-GST [20]?
**A.** 14.5

**Q.** What about the G9a-GST [21] of the same substance?
**A.** 19.5

**Q.** And the G9a-GST [22]?
**A.** 20.8

**Q.** What about the G9a-GST [23] of the same substance?
**A.** 12.4

**Q.** And the G9a-GST [24]?
**A.** 13

**Q.** What about the G9a-GST [25] of the same substance?
**A.** 14.1

**Q.** And the G9a-GST [26]?
**A.** 14.6

**Q.** And the G9a-GST [27]?
**A.** 12.5

**Q.** And the G9a-GST [28]?
**A.** 24.1

**Q.** What about the G9a-GST [29] of the same substance?
**A.** 13.7

**Q.** What about the G9a-GST [30] of the same substance?
**A.** 14.5

**Q.** And the G9a-GST [31]?
**A.** 26.5

**Q.** What about the G9a-GST [32] of the same substance?
**A.** 25.6

**Q.** What about the G9a-GST [33] of the same substance?
**A.** 18.3

**Q.** What about the G9a-GST [34] of the same substance?
**A.** 13.2

**Q.** And the G9a-GST [35]?
**A.** 13.4

**Q.** What about the G9a-GST [36] of the same substance?
**A.** 17.7

**Q.** And the G9a-GST [37]?
**A.** 49.5

**Q.** And the G9a-GST [38]?
**A.** 15.5

**Q.** What about the G9a-GST [39] of the same substance?
**A.** 13.8

**Q.** And the G9a-GST [40]?
**A.** 14

**Q.** What about the G9a-GST [41] of the same substance?
**A.** 21.9

**Q.** What about the G9a-GST [42] of the same substance?
**A.** 12.1
